The source of these data is patent publication US20040002582A1 (University of Texas, published 2004).

No end group written: not given here.

One experiment has as its target T1, LGT virus (Langat virus, UniProt P29837 281-776).
T1 sequence: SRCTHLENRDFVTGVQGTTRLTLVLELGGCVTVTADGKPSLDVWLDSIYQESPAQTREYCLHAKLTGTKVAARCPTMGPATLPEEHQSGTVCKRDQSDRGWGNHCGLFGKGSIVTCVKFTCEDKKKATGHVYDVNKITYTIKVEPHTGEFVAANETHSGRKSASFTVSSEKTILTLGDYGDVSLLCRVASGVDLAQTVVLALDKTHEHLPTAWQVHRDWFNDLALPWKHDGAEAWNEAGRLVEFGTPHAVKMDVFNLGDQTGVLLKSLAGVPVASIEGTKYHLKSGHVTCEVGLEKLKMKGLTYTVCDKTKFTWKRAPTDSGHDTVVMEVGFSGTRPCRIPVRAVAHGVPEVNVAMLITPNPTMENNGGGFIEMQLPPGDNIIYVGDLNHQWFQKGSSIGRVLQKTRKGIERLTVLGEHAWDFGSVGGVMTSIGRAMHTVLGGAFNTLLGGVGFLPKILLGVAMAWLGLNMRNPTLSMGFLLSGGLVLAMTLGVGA
The experiment can be described thus: cell-based or functional assay.

The next experiment concerns the target T2, POW-E-D3 (Powassan virus, UniProt Q04538 579-674).
T2 sequence: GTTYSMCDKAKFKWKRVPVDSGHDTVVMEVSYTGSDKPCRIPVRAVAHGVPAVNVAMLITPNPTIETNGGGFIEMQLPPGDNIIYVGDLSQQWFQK

B1: MP-100 (designed binder)
peptide: RCCHPQCKEGKKCR
modifications: not fully specified; cysteine pairing not given here
As to B1, in the experiment with LGT virus, the “reduction of viral titer in Vero cells at 24 hpi” value is roughly 300 fold and the “reduction of viral titer in Vero cells at 36 hpi” value is roughly 100 fold. Besides, the “level of enrichment (ratio of enriched signal/library signal)” value with POW-E-D3 was > 1.5 ratio of enriched signal/library signal.
